BMax (relative luminescent units) and Kd data for four substances are collected here from patent US20220054648A1.

Assay [1] concerns the target human Trop-2 (human) (UniProt P09758). Kind of assay: cell binding assay on NCI-N87 cells, anti-mouse-HRP secondary, luminescence.
For assay [2] the target is unchanged. Kind of assay: cell binding assay (cell line not given).

Sequence of human Trop-2 (human) (P09758 27-323): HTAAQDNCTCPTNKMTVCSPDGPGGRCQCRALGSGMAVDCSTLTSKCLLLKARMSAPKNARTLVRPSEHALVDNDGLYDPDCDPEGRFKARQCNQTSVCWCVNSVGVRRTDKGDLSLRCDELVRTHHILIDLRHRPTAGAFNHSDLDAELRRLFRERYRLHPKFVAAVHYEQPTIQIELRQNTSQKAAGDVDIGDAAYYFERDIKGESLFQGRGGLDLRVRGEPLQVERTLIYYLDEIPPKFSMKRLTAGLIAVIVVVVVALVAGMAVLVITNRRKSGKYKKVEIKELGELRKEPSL

The substance “162-46.2 murine monoclonal antibody against human Trop-2” had a BMax (relative luminescent units) in the assay with human Trop-2 (human) [1] of 8470.

“MAB650 murine monoclonal antibody against human Trop-2 (R&D Systems)”: the BMax (relative luminescent units) with human Trop-2 (human) [1] is 6020. In the assay with human Trop-2 (human) [2], “hRS7-CL2-SN-38 (anti-Trop-2 ADC, hRS7 IgG conjugated to CL2-SN-38) (antibody)” registered a Kd of 1.2 nM.

In turn, “hRS7-CL2A-SN-38 (anti-Trop-2 ADC, hRS7 IgG conjugated to CL2A-SN-38) (antibody)” displayed a dissociation constant (Kd) in the assay with human Trop-2 (human) [2] of 1.2 nM.

For orientation: Kd means the concentration at which binding is half-saturated. High values mean a looser complex, low ones a tighter complex.
